Reference: paper PMC3298081 (Arteriosclerosis, Thrombosis, and Vascular Biology, 2012)

Biological target: thrombospondin-1 (human, UniProt P07996 19-1170)
Assay: ELISA

Chain of thrombospondin-1 (P07996 19-1170): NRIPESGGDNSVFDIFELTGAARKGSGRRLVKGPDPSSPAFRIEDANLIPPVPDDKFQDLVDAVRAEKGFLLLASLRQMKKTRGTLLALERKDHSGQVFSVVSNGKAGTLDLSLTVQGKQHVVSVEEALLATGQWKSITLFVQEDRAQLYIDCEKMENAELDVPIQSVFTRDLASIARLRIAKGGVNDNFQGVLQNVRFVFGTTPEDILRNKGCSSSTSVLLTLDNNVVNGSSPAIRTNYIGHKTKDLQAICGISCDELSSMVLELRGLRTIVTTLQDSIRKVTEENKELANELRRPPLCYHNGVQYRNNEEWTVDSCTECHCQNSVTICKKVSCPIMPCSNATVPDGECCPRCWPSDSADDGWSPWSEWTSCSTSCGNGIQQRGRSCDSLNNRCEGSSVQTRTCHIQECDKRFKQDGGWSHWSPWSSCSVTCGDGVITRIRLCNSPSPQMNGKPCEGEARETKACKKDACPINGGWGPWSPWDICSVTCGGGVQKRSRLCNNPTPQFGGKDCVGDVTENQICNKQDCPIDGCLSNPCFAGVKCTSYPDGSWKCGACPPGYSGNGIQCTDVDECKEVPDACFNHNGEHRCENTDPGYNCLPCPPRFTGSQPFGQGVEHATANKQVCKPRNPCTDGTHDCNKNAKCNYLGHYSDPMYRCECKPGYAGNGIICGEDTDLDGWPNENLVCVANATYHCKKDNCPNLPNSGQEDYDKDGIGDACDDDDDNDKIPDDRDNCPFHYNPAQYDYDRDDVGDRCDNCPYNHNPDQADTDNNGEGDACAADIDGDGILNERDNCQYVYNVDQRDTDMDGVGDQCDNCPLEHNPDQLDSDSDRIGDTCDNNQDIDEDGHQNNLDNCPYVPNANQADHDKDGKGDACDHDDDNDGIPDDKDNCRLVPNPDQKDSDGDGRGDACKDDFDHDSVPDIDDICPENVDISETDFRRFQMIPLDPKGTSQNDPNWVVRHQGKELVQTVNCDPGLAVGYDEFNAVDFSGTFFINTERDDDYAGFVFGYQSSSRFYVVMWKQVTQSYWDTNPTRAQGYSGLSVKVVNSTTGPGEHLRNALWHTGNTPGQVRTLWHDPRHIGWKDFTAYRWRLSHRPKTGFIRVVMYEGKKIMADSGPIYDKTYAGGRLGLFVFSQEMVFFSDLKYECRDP

B1: recombinant thioredoxin/extended CD36 CLESH domain fusion protein (non-phosphorylated) (domain or fragment, human, UniProt P16671 81-120, looked up)
chain: SNIQVKQRGPYTYRVRFLAKENVTQDAEDNTVSFLQPNGA
**Q.** Does B1 bind?
**A.** binds
